Assay results published in patent US11708423B2, “Chimeric engulfment receptor molecules and methods of use” (CERO THERAPEUTICS, INC., priority 2017, dated 2023).

What was measured:
[1] = tested on: H1975 lung adenocarcinoma cells; assay: LDH assay, H1975 cells, 48 hours co-culture with 1 μM Osimeritinib; assay type: cell-based; conditions: E:T 1:1, 48 hours, CD4+ T cells
Text: CER30 comprises a Tim4 binding domain, Tim4 transmembrane domain, and an engulfment signaling domain comprising a primary engulfment signaling domain comprising a TRAF2 signaling domain. CER30 has a polypeptide sequence as set forth in SEQ ID NO:96. CER110 has a polypeptide sequence of SEQ ID NO:125 and comprises a Tim4 binding domain, Tim4 transmembrane domain, and an engulfment signaling domain comprising a primary engulfment signaling domain comprising a TRAF6 signaling domain and a secondary engulfment signaling domain comprising a DAP12 signaling domain. CER112 has a polypeptide sequence of SEQ ID NO:128 and comprises a Tim4 binding domain, Tim4 transmembrane domain, and an engulfment signaling domain comprising a primary engulfment signaling domain comprising a TRAF6 signaling domain and a secondary engulfment signaling domain comprising a NFAM1 signaling domain. CER127 has a polypeptide sequence of SEQ ID NO:175 and comprises a Tim4 binding domain, Tim4 transmembrane domain, and an engulfment signaling domain comprising a primary engulfment signaling domain comprising a TRAF2 signaling domain and a secondary engulfment signaling domain comprising a TLR2 signaling domain. H1975 cells are more resistant to EGFR inhibitors, so Osimeritinib was used at slightly higher concentration. H1975 lung adenocarcinoma cells harboring an EGFR mutation were co-cultured with CER-expressing or mock-transduced (vector only) CD4+ T cells with 1 μM of Osimeritinib. After 48 hours of co-culture at a 1:1 effector:target cell ratio, T cells were washed away, and the number of viable H1975 cells was quantified using a calorimetric LDH assay (FIG. 57). Cell viability experiments were performed in triplicate and presented as % of control.

[2] = tested on: HCC827 lung adenocarcinoma cells; assay: MTT viability and bright field microscopy of HCC827 cells with CER T cells and Osimeritinib; assay type: cell-based; conditions: Osimeritinib 1 nM, 48 hours, CD4+ T cells
Text: CD4+ T cells were transduced with lentiviral vectors encoding various CERs (CER21, CER108, CER104, CER129, CER27, CER120, CER122, CER123, CER124, or CER126). Mock transduced (vector only) CD4+ T cells were used as control. CER21 comprises a Tim4 binding domain, Tim4 transmembrane domain, and an engulfment signaling domain comprising a primary engulfment signaling domain comprising a TLR8 signaling domain. CER21 has a polypeptide sequence as set forth in SEQ ID NO:88. CER108 has a polypeptide sequence as set forth in SEQ ID NO:137 and comprises a Tim4 binding domain, Tim4 transmembrane domain, and an engulfment signaling domain comprising a primary engulfment signaling domain comprising a DAP12 signaling domain and a secondary engulfment signaling domain comprising a TLR8 signaling domain. CER104 has a polypeptide sequence as set forth in SEQ ID NO:133 and comprises a Tim4 binding domain, Tim4 transmembrane domain, and an engulfment signaling domain comprising a primary engulfment signaling domain comprising a TLR8 signaling domain and a secondary engulfment signaling domain comprising a DAP12 signaling domain. CER129 has a polypeptide sequence as set forth in SEQ ID NO:177 and comprises a Tim4 binding domain, Tim4 transmembrane domain, and an engulfment signaling domain comprising a primary engulfment signaling domain comprising a TLR8 signaling domain and a secondary engulfment signaling domain comprising a TRAF2 signaling domain. CER27 comprises a Tim4 binding domain, Tim4 transmembrane domain, and an engulfment signaling domain comprising a primary engulfment signaling domain comprising a TLR2 signaling domain. CER27 has a polypeptide sequence as set forth in SEQ ID NO:93. […] T cells were washed away, and the number of viable HCC827 cells was quantified using a calorimetric MTT assay. […]

| Molecule | killing of H1975 cells (LDH) [1] | bright field microscopy of HCC827 co-culture [2] |
| --- | --- | --- |
| CER21: Tim4 binding and transmembrane domains, TLR8 signaling domain; SEQ ID NO:88 (protein, CER21 chimeric engulfment receptor) MSKGLLLLWLVTELWWLYLTPAASEDTIIGFLGQPVTLPCHYLSWSQSRNSMCWGKGSCPNSKCNAELLRTDGTRIISRKSTKYTLLGKVQFGEVSLTISNTNRGDSGVYCCRIEVPGWFNDVKKNVRLELRRATTTKKPTTTTRPTTTPYVTTTTPELLPTTVMTTSVLPTTTPPQTLATTAFSTAVTTCPSTTPGSFSQETTKGSAFTTESETLPASNHSQRSMMTISTDIAVLRPTGSNPGILPSTSQLTTQKTTLTTSESLQKTTKSHQINSRQTILIIACCVGFVLMVLLFLAFLHHLFYWDVWFIYNVCLAKVKGYRSLSTSQTFYDAYISYDTKDASVTDWVINELRYHLEESRDKNVLLCLEERDWDPGLAIIDNLMQSINQSKKTVFVLTKKYAKSWNFKTAFYLALQRLMDENMDVIIFILLEPVLQHSQYLRLRQRICKSSILQWPDNPKAEGLFWQTLRNVVLTENDSRYNNMYVDSIKQY | synergistic killing of H1975 lung adenocarcinoma cells upon EGFR inhibition | cluster of dead HCC827 EGFR^+ cells surrounded by phagocytic CER21^+ T cells |
| CER123: Tim4 binding and transmembrane domains, TLR2 primary and TRAF6 secondary signaling domains; SEQ ID NO:150 (protein, CER123 protein) MSKGLLLLWLVTELWWLYLTPAASEDTIIGFLGQPVTLPCHYLSWSQSRNSMCWGKGSCPNSKCNAELLRTDGTRIISRKSTKYTLLGKVQFGEVSLTISNTNRGDSGVYCCRIEVPGWFNDVKKNVRLELRRATTTKKPTTTTRPTTTPYVTTTTPELLPTTVMTTSVLPTTTPPQTLATTAFSTAVTTCPSTTPGSFSQETTKGSAFTTESETLPASNHSQRSMMTISTDIAVLRPTGSNPGILPSTSQLTTQKTTLTTSESLQKTTKSHQINSRQTILIIACCVGFVLMVLLFLAFLHRFHGLWYMKMMWAWLQAKRKPRKAPSRNICYDAFVSYSERDAYWVENLMVQELENFNPPFKLCLHKRDFIPGKWIIDNIIDSIEKSHKTVFVLSENFVKSEWCKYELDFSHFRLFDENNDAAILILLEPIEKKAIPQRFCKLRKIMNTKTYLEWPMDEAQREGFWVNLRAAIKSMSLLNCENSCGSSQSESDCCVAMASSCSAVTKDDSVGGTASTGNLSSSFMEEIQGYDVEFDPPLESKYECPICLMALREAVQTPCGHRFCKACIIKSIRDAGHKCPVDNEILLENQLFPDNFAKREILSLMVKCPNEGCLHKMELRHLEDHQAHCEFALMDCPQCQRPFQKFHINIHILKDCPRRQVSCDNCAASMAFEDKEIHDQNCPLANVICEYCNTILIREQMPNHYDLDCPTAPIPCTFSTFGCHEKMQRNHLARHLQENTQSHMRMLA | synergistic killing of H1975 lung adenocarcinoma cells upon EGFR inhibition |  |
| CER126: Tim4 binding and transmembrane domains, TLR2 primary and TRAF2 secondary signaling domains; SEQ ID NO:174 (protein, CER126 protein) MSKGLLLLWLVTELWWLYLTPAASEDTIIGFLGQPVTLPCHYLSWSQSRNSMCWGKGSCPNSKCNAELLRTDGTRIISRKSTKYTLLGKVQFGEVSLTISNTNRGDSGVYCCRIEVPGWFNDVKKNVRLELRRATTTKKPTTTTRPTTTPYVTTTTPELLPTTVMTTSVLPTTTPPQTLATTAFSTAVTTCPSTTPGSFSQETTKGSAFTTESETLPASNHSQRSMMTISTDIAVLRPTGSNPGILPSTSQLTTQKTTLTTSESLQKTTKSHQINSRQTILIIACCVGFVLMVLLFLAFLHRFHGLWYMKMMWAWLQAKRKPRKAPSRNICYDAFVSYSERDAYWVENLMVQELENFNPPFKLCLHKRDFIPGKWIIDNIIDSIEKSHKTVFVLSENFVKSEWCKYELDFSHFRLFDENNDAAILILLEPIEKKAIPQRFCKLRKIMNTKTYLEWPMDEAQREGFWVNLRAAIKSMAAASVTPPGSLELLQPGFSKTLLGTKLEAKYLCSACRNVLRRPFQAQCGHRYCSFCLASILSSGPQNCAACVHEGIYEEGISILESSSAFPDNAARREVESLPAVCPSDGCTWKGTLKEYESCHEGRCPLMLTECPACKGLVRLGEKERHLEHECPERSLSCRHCRAPCCGADVKAHHEVCPKFPLTCDGCGKKKIPREKFQDHVKTCGKCRVPCRFHAIGCLETVEGEKQQEHEVQWLREHLAMLLSSVLEAKPLLGDQSHAGSELLQRCESLEKKTATFENIVCVLNREVERVAMTAEAC | synergistic killing of H1975 lung adenocarcinoma cells upon EGFR inhibition |  |
| CER104: Tim4 binding and transmembrane domains, TLR8 primary and DAP12 secondary signaling domains; SEQ ID NO:133 (protein, CER104 protein) MSKGLLLLWLVTELWWLYLTPAASEDTIIGFLGQPVTLPCHYLSWSQSRNSMCWGKGSCPNSKCNAELLRTDGTRIISRKSTKYTLLGKVQFGEVSLTISNTNRGDSGVYCCRIEVPGWFNDVKKNVRLELRRATTTKKPTTTTRPTTTPYVTTTTPELLPTTVMTTSVLPTTTPPQTLATTAFSTAVTTCPSTTPGSFSQETTKGSAFTTESETLPASNHSQRSMMTISTDIAVLRPTGSNPGILPSTSQLTTQKTTLTTSESLQKTTKSHQINSRQTILIIACCVGFVLMVLLFLAFLHHLFYWDVWFIYNVCLAKVKGYRSLSTSQTFYDAYISYDTKDASVTDWVINELRYHLEESRDKNVLLCLEERDWDPGLAIIDNLMQSINQSKKTVFVLTKKYAKSWNFKTAFYLALQRLMDENMDVIIFILLEPVLQHSQYLRLRQRICKSSILQWPDNPKAEGLFWQTLRNVVLTENDSRYNNMYVDSIKQYYFLGRLVPRGRGAAEAATRKQRITETESPYQELQGQRSDVYSDLNTQRPYYK | synergistic killing of H1975 lung adenocarcinoma cells upon EGFR inhibition | cluster of dead HCC827 EGFR^+ cells surrounded by phagocytic CER104^+ T cells |
